The data set is described as follows: soluble on expression in E. coli; label from the status in PepcDB or PDB records.
Turning to “MQPTPSEYARTPVRIEMQRSKERNSMVYKEMYNDAQRKYSEALDRISKLTDAYLREKAEVENFIKIKDREVEMSKKNANEKLLKDFLPVLDSIDAAIQAEKDNNLIRIRDQMLGVLSRYGLKPIKAEGSKFDPYLHEVVGVTADGEDGMVKYEVQRGYTLNDGVLRTSKVIVVKR”, the “soluble on expression in E. coli” value was “not soluble”.

Turning to “MQQDVSREHTINNGSSMADHDEHPIEQKEFYMLIGLDIGGTKIEICVLDKQGSMLYRQRIATPDNYSQFVDCVCSLIVDAEQATQPVDSIGIGLPGAVSPVTGLIKNANCTFLNGQDLSSDLQYRLGREVKLANDANCFALSEAIDGAGKESMVVFGAILGTGCGGSIVVNRQVLVGPNAICGEWGHNPLPGYHLEQDGAARYCYCGRQNCIERFISGSGFQDSYQALTGECITASEIMKRYKQQEPEAIHCYTQLIDHMARSFAGLVNVLDPDIIVLGGGLSNIDELYRDLPTATARHVFSDSAQVHFAKAVFGDSSGIRGAAWL”, the “soluble on expression in E. coli” value is listed as “not soluble”.

Consider “MQQEALSFLSSSLPSLHHNFPSLSRLRFNNFPALSFKPNTSSSSSSFFKSPDIPSLSSTTTTTTTTETLESSIHEKLIYLDSLGIDFLTLINRHPPLLSTALSAVESVVDYMTTPPINFTLQDFRRLVSMCPELLTSPLTSHTIPVITFLLREVGVDSIFDLRQALRRRPRLLACSVDHQLRPTLYFLQRIGILDPHKHTYLLSCSVDNKLVPRIDYFEKLGFSRRSATAMFKRFPQLFNYSIAENYEPKLKYLMVEMGRDVREVLEFPQYFSFSLENRIKPRHEACAAKGVRFPLPVMLKTNEAGFRDTLEVCCDSSPPLKTSRLVTVQKDS”, for which the “soluble on expression in E. coli” value is given as “not soluble”.

In the case of “MQQLQNVIETAFERRADITPANVDTVTREAITHVIDLLDTGALRVAEKIDGQWVTHQWLKKAVLLSFRINDNQVMEGAETRYYDKVPMKFAGYDEARFQREGFRVVPPATVRKGAFIARNTVLMPSYVNIGAFVDEGTMVDTWATVGSCAQIGKNVHLSGGVGIGGVLEPLQANPTIIEDNCFVGARSEVVEGVIVEEGSVISMGVFIGQSTRIYDRETGEVHYGRVPAGSVVVSGNLPSKDGSYSLYCAVIVKKVDAKTRSKVGINELLRTID”, the “soluble on expression in E. coli” value was “not soluble”.

On to “MQRARCYLIGETAVVLELEPPVTLASQKRIWRLAQRLVDMPNVVEAIPGMNNITVILRNPESLALDAIERLQRWWEESEALEPESRFIEIPVVYGGAGGPDLAVVAAHCGLSEKQVVELHSSVEYVVWFLGFQPGFPYLGSLPEQLHTPRRAEPRLLVPAGSVGIGGPQTGVYPLATPGGWQLIGHTSLSLFDPARDEPILLRPGDSVRFVPQKEGVC”, for which the “soluble on expression in E. coli” value is “soluble”.

Turning to “MQRLTSARLFKGAFNVGQKRATNASAGAAAVASRPQALPQPHQASTMTPPAAAPAVAAPQASLTRSASLVAPPSTSAPPSGAAPPMPKKKIIRRIIKRKKASAGVATGEAVHRAAAEAVSQTAAPAAPSEPAFAAATGAQPPRRGLAMLNAIRKHPEGSIEEQPQVVTEKHSEEMATAQEQYHEHTHDRHPAIQETEEAHEHHYHHDAASEKVTSSRYNAASAEAETDATGGSDAMDDATSNGSSSSRKTAMVKGYRIDEVGALCSSSDAMFARRLPSGGCQFFAWPGTPLSVASSAIVSMPDTIRTVHAVFGRAGTPIDIVMDIDAQVPQEYWTMSKIRVYQRKVLDDVLTPLKEEIEKIGEEIETQVVLQSPNLKKASFHVHTRLKDAAFADFYSLHGFLFRFQDRLPNVDLQIYRPNGMLRMFSCMKENRTSAIIVFDESKWNIGFPGGKVSDEQAALHSICVRDPSTFSRVLTFEAPRQSNMPAYGGSKGACGDGSEGALRPPQVLLPLTEKEAIESASRWLRQATEVEVGEWRTWIGLGLCAYRVAYHFRNARNLPRPAMAEMLDAWTEASRKCPLKFHSGECEARWAAFDPEKLGSQSDWWSAYKRLGRLEVPMREAMEREAAFAARCASRYQAAPAAEVPFAPEPPQSAAAVGSVTSASRKMKQQKKAFRRA”, the “soluble on expression in E. coli” value is “not soluble”.

In the case of “MQSLTTALENLLRHLSQEIPATPGIRVIDIPFPLKDAFDALSWLASQQTYPQFYWQQRNGDEEAVVLGAITRFTSLDQAQRFLRQHPEHADLRIWGLNAFDPSQGNLLLPRLEWRRCGGKATLRLTLFSESSLQHDAIQAKEFIATLVSIKPLPGLHLTTTREQHWPDKTGWTQLIELATKTIAEGELDKVVLARATDLHFASPVNAAAMMAASRRLNLNCYHFYMAFDGENAFLGSSPERLWRRRDKALRTEALAGTVANNPDDKQAQQLGEWLMADDKNQRENMLVVEDICQRLQADTQTLDVLPPQVLRLRKVQHLRRCIWTSLNKADDVICLHQLQPTAAVAGLPRDLARQFIARHEPFTREWYAGSAGYLSLQQSEFCVSLRSAKISGNVVRLYAGAGIVRGSDPEQEWQEIDNKAAGLRTLLQME”, the “soluble on expression in E. coli” value is “soluble”.

In the case of “MQSVNRKSNKGATANIDAQEPFSVLLMGIDTGDLGRTEQGRSDTTMVVTINPKENKSTMISLDRDILTDIVGNDTQDKLNHAYAFGGAEMAINTVQELLDIPIHHYVSINMKGLKDLIDAVGGIEVDNTIGEFTLDGITVPAGKIKLDGTTGLAYARMRHEDPEGDVGRQRRQREVVEKIVRKVMSFDGVSKYRKILDAVEANVKTDLTWDDMMDIQSKYLSAFKTIDSEQLQGYSATIDDIYYQVLDPNSLYKTQTTLRKQLGLKEHASEREKDLAFYNQFSYAVTDTALIGESGDSSANSSTSSSSTADTTAGQTEYNGNTQQAAEGTYDPNTYVDPNAYTDPNAYADPNTYVDPNAPQYLEHHHHHH”, the “soluble on expression in E. coli” value was “soluble”.

Consider “MQTASVPAGIAERRTRAWAPYIDAKLGFRNHWYPVRLSAEVAEASPVPVQLLGEKVLLNRVDGVVHAIADRCLHRGVTLSDKVECYSKATISCWYHGWTYRWDNGKLVDILTNPTSVQIGRHALKTYPVREEKGLVFLFVGDQEPHDLAEDVPPGFLDADLAVHGQHRVVDANWRMGVENGFDAGHVFIHKSSILLDGNDIALPLGFAPGDPEQLTRSVTGEGAPKGVFDLLGEHSVPIFEATIEGQPAIQGHMGSKMVAISISVWLPGVLKVDPFPDPTLTQFEWYVPIDEGHHLYLQMLGRRVGSEEEARSFEAEFREKWVELALNGFNDDDILARRSMEPFYADDRGWREEVLFESDRAIIEWRRLASQYNRGIQTRDVRHHHHHH”, for which the “soluble on expression in E. coli” value is recorded as “soluble”.

In the case of “MQTEFLTGAPTRSAAFPVTGGDWGTAGILQTPTARMNDAGEASLSMSHVSPYTRLNFALQPLDWLEIGFRYTDVSNQPYGPVSLSGTQSYKDKSIDAKIRLWRESAYLPDVAVGFRDIAGSGLFSGEYLVASKRTGPFDWSVGLGWGYMGARGNLRNPLSMISRRFDDRANSATPNGGELGYGSWFRGRVSPFGGVQYQTPDERLILKAEYDGNDYRHEPFGQVLKERSPFNFGAVYRATRNIDLSVGFERGTRVMFGVSLHGNLKRATMPKLGNPPPVPVTQPAANAGPRTHAAGAPTRGGRSAVASTPRIEGASPSPFDRDWSDTVAQLQAQTNWHVRSIRALGMDLVIEFDDVDAFYLQDQIDRIATILNRDAPLNVRTFHVVALTHGVPVADYQVQRTQWFASRTRALVPSEVAPATTLGRPLTNQSIDMLPPLFEQRPRAFVLSVGPGYQQTLGGPNGFLLYQISANAYGELRMPGGAWLGGELNVGLVDNYGKFTYTADSKLPRVRTYLREYLTTSRVTLPLLQLTKIGRLGNDQFYSVYGGLLESMFAGVGVEWLYRPAHSRLAIGVDVNAVRQRGFRQDFSMRGYKTLTGHVTAYWDTGWQGVQINLSVGQYLAKDKGATLDISRRFRNGVVIGAYATKTNVSPAQFGEGSFDKGIYVTIPFDAMMTRSSSSIANLRWNPVTRDGGAKLDRRYPLYDLTDMGERRSLWYAPPDGAVSPLEHHHHHH”, the “soluble on expression in E. coli” value is on record as “not soluble”.

For the sequence “MQTPKPTLELLTCDAAYRENPTALFHQVCGDRPATLLLESADIDSKDDLKSLLLVDSALRITALGDTVTIQALSDNGASLLPLLDTALPAGVENDVLPAGRVLRFPPVSPLLDENARLCSLSVFDAFRLLQGVVNIPTQEREAMFFGGLFAYDLVAGFEALPHLEAGNNCPDYCFYLAETLMVIDHQKKSTRIQASLFTASDREKQRLNARLAYLSQQLTQPAPPLPVTPVPDMRCECNQSDDAFGAVVRQLQKAIRAGEIFQVVPSRRFSLPCPSPLAAYYVLKKSNPSPYMFFMQDNDFTLFGASPESSLKYDAASRQIEIYPIAGTRPRGRRADGTLDRDLDSRIELDMRTDHKELSEHLMLVDLARNDLARICTPGSRYVADLTKVDRYSYVMHLVSRVVGELRHDLDALHAYRACMNMGTLSGAPKVRAMQLIADAEGQRRGSYGGAVGYFTAHGDLDTCIVIRSALVENGIATVQAGAGIVLDSVPQSEADETRNKARAVLRAIATAHHAQETF”, the “soluble on expression in E. coli” value was “soluble”.

In the case of “MQTSDLLKKVRRIEIKARGLSRQIFAGQYHSAFRGRGMAFSEVREYTVGDDVRDIDWNVTARYARPYVKVFEEERELTVMLMVDMSGSLSFGTEVETKRELTAEVAATLAFSAIQNNDKIGVLFFTDRIEKYVPPAKGKKHILYIIRELLEFRPQSRATDLSVPLSYLTRLVKKRCTAFLISDFQSEKDSYEKTLLMSARKHDIVAIRIFDRREADLPNVGLMRFRDAETGQTHWVDTADSSVRKAYADAYERRQVALAVLLKRCGVDTTEIRTGQDFVQQLLILFKKRS”, the “soluble on expression in E. coli” value was “not soluble”.

Turning to “MQVDINVNVVEKPTGAIMFGAGYSDREGIILNGSIAQNNILGTGNFLSLQVNTGSVNKVISASFNNPYYTINGVSLGLEAFKRDINTRSLSSVGMFNTDTTGANIRFGIPVAENDIVSLGLGYEHTKIDLRDDSPQRFKDFVDQFGKTSNNLPITLSWARDRRNSAIWTTSGMTQRLFGEFGLPFGDLNYYKVSYEQRWFFPVTKMFTLMLNGEVGVGDGYSDKPLPFFKNFFAGGFNSVRGYNINTLGPRDSDDRVLGGSKRIVGNIEVLFPVPFMKEDKSVRLSAFADGGTIVNSFSGLGFDDFRYSAGLAATWISPMGPLKFSVAQPLNNQSGDKLQRFQFQFGQTFLEHHHHHH”, the “soluble on expression in E. coli” value was “not soluble”.

“MQVSKRKSLCKICGNPAFGNHFGVLSCRACAAFFRRTNVDGETFCPIGNCKIDKHGKFYCKKCRLRICLEAGMDANKFQHDRDLISTSTSESSDSSGSFSFSQRSKVPKSMANFLGRPAFILSCEPDKASKVKTIVDVTFLINQAFDIFGNVDRKRFSSNSNLGRMTKKFEDLQNEKSSNLSTIKVLGLKESMIFWEQDFLRTARWLSHFDEFQELPLSIRMQILKVAWILWGRLDKLVKTANERKNQQLNQNFYMIGKDVGIDIGNFEVDVSWCTNYSKEQLAYYLDCHHDEPFNIIVDAISDLKPSDMELNFMLLELCLAHAGKQHQGDVLMFTDRLLEVVSNELHDYYQSEQISNYSSRITKMMKINNLIRRNLFERLERQAVAKVFNIISVHFSHPDMFCNAGF”: the “soluble on expression in E. coli” value is on record as “not soluble”.

“MQYCELDLSGQWLDTVYCEENFSDFVFIKFLNPSQFEEKIYCYTLHITKRTLENKRLLLYYEDEFKKHGHDINELVGDGIILRSCWNPRQ”: the “soluble on expression in E. coli” value is reported as “soluble”.

Take “MQYEKVKPPENGEKIRYENGKLIVPDNPIIPYFEGDGIGKDVVPAAIRVLDAAADKIGKEVVWFQVYAGEDAYKLYGNYLPDDTLNAIKEFRVALKGPLTTPVGGGYRSLNVTIRQVLDLYANVRPVYYLKGVPSPIKHPEKVNFVIFRENTEDVYAGIEWPRGSEEALKLIRFLKNEFGVTIREDSGIGIKPISEFATKRLVRMAIRYAIENNRKSVTLVHKGNIMKYTEGAFRDWGYEVAKQEFGEYCITEDELWDKYGGKQPEGKIVVKDRIADNMFQQILTRTDEYDVIALPNLNGDYLSDAAAALIGGLGIAPGSNIGDGIGVFEPVHGSAPKYAGQNKVNPTAEILTGALMFEYIGWKDASEMIKKAVEMTISSGIVTYDIHRHMGGTKVGTREFAEAVVENLQSL”: the “soluble on expression in E. coli” value is given as “soluble”.

The record behind these values is the DeepSol protein solubility set.
